“Also recorded” adds a separate entry of the source.
Molecular target: T1, ENaC (Homo sapiens, UniProt P37088+P51168+P51170)
T1 construct: endogenous in cells; host or cells: primary human bronchial epithelial cultures
T1 sequence (P37088 1-669): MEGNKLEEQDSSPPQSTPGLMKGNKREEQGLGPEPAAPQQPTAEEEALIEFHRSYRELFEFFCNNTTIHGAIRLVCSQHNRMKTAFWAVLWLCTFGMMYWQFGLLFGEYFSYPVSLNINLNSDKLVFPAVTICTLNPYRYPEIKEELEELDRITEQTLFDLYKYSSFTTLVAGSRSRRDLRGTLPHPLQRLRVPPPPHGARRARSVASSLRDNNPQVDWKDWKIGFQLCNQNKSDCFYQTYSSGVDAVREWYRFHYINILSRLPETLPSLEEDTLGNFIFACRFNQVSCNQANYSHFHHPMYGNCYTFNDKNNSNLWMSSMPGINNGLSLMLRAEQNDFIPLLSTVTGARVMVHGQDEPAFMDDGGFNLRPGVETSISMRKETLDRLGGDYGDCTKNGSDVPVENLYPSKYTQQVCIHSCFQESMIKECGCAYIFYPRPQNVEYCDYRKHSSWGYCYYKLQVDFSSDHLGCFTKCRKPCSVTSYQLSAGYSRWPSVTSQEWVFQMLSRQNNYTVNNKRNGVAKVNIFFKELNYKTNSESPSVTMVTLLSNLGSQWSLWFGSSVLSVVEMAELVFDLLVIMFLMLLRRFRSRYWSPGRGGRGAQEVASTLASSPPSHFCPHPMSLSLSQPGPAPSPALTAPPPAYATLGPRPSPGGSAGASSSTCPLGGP
T1 sequence (P51168 1-640): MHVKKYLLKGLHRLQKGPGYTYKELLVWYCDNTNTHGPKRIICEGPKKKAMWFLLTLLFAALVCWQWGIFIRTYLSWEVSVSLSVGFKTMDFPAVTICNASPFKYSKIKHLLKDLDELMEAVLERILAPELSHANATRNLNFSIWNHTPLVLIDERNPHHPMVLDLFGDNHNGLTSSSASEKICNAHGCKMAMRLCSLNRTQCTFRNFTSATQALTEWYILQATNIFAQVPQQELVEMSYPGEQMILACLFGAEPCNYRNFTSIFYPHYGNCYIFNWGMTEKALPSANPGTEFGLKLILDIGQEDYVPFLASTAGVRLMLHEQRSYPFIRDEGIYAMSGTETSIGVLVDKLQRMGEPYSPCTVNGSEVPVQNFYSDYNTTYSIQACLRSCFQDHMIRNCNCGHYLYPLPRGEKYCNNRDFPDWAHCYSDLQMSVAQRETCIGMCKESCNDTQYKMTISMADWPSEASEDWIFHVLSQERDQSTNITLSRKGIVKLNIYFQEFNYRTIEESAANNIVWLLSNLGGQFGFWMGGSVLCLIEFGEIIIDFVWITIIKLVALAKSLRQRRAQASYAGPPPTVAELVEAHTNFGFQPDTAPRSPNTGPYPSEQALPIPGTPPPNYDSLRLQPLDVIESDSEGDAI
T1 sequence (P51170 1-649): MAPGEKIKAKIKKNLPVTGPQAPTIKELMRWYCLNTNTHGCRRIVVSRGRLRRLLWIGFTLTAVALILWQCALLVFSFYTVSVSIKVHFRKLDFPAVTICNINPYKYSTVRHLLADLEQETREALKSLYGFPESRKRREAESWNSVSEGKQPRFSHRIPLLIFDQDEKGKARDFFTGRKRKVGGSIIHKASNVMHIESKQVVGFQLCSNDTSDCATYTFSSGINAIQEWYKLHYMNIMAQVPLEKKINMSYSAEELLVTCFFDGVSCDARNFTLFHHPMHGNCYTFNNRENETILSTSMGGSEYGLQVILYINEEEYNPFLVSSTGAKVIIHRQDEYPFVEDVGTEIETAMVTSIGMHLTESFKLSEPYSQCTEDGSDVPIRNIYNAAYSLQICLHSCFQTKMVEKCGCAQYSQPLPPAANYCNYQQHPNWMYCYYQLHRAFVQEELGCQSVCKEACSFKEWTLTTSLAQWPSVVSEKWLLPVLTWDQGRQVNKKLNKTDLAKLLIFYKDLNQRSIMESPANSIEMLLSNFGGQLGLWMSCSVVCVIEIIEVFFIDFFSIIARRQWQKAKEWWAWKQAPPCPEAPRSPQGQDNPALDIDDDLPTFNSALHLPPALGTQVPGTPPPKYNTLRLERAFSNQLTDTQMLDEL
Test: Transepithelial voltage under thin film conditions in human bronchial epithelial cultures (microelectrode)
Format: cell-based
Conditions: prewashed cultures, PD remeasured 45 min later; DTT-reduced vs 50 ng/ml recombinant SPLUNC1
From the text: Tissue procurement and cell culture: Cells were harvested by enzymatic digestion from human bronchial tissue as previously described under a protocol approved by the UNC School of Medicine IRB (Tarran et al., J. Gen. Physiol. 127:591 (2006)). Human excess donor lungs and excised recipient lungs were obtained at the time of lung transplantation from portions of main stem or […] bronchi and cells were harvested by enzymatic digestion. All preparations were maintained at an air-liquid interface in a modified bronchial epithelial medium and used 2-5 weeks after seeding on 12 mm T-Clear inserts (Corning Costar) coated with human placental type VI collagen (Sigma). Phosphate buffered saline (PBS) was used for washing human bronchial epithelial culture mucosal surfaces.
Microelectrode studies. A single-barreled potential difference-sensing electrode was placed in the airway surface liquid by micromanipulator and used in conjunction with a macroelectrode in the serosal solution to measure transepithelial voltage using a voltmeter (World Precision Instruments). […] Transepithelial resistance was routinely measured using the EVOM system (WPI) as previously described (Tarran et al., J. Gen. Physiol. 127:591 (2006)).

B1: recombinant SPLUNC1 that had been reduced with DTT: recombinant SPLUNC1 reduced with DTT (protein, UniProt Q9NP55 20-256, looked up)
BPI fold-containing family A …: QFGGLPVPLDQTLPLNVNPALPLSPTGLAGSLTNALSNGLLSGGLLGILENLPLLDILKPGGGTSGGLLGGLLGKVTSVIPGLNNIIDIKVTDPQLLELGLVQSPDGHRLYVTIPLGIKLQVNTPLVGASLLRLAVKLDITAEILAVRDKQERIHLVLGDCTHSPGSLQISLLDGLGPLPIQGLLDSLTGILNKVLPELVQGNVCPLVNEVLRGLDITLVHDIVNMLIHGLQFVIKV
modifications: DTT-reduced
inhibition of the transepithelial PD (SPLUNC1 activity): abolished; also recorded: attenuated
